For experiment [1], the target named is T1, native human CD22 (hCD22) (human, UniProt P20273 20-847).
T1 construct: On Raji and Ramos Burkitt lymphoma cells (Scatchard analysis, flow cytometry) and on mouse L cells transfected with full-length CD22 cDNA (hybridoma screen)
In words: hybridoma screen on CD22-transfected mouse L cells. An excerpt: Monoclonal antibodies (mAbs) HB22-7 (IgG2b), HB22-23 (IgG2a), HB22-33 (IgM), HB22-5 (IgG2a), HB22-13 (IgG2a), HB22-22 (IgA), and HB22-196 were produced according to the method of Engel et al., J Immunol 15:4710 (1993) and U.S. Pat. No. 5,484,892. See, also Tuscano et al, Blood 94:1382-1392 (1999). However, other methods may be used. Briefly, the HB22 mAbs were produced via hybridoma techniques using a mouse pre-B cell line 300.19, stably transfected with full length CD22 cDNA, as the immunogen. More specifically, thirty-three mAbs reactive with CD22 were generated by the fusion of NS-1 myeloma cell with spleen cells from Balb/c mice immunized three times with a mouse pre-B cell line, 300.19, stably transfected with a full-length CD22 cDNA. Hybridomas producing mAb reactive with mouse L cells transfected with CD22 cDNA, but not with untransfected cells, were cloned twice and used to generate supernatant or ascites fluid. mAb isotypes were determined using the Mouse Monoclonal Antibody Isotyping Kit (Amersham, Arlington Heights, Ill.). IgGmAb were purified using the Affi-Gel Protein A MAPS II Kit (Bio-Rad, Richmond, Calif.).

Experiment [2] has as its target T1, native human CD22 (hCD22). In words: Scatchard analysis, Raji against Ramos cells. How it is done: Cell lines and Scatchard Analysis. Raji and Ramos Burkitt lymphoma, cell lines were purchased from American Type Culture Collection (ATCC, Manassas, Va.). Both cell lines stained for CD22 expression by flow cytometric methods utilizing the HB22-7 mAb, as described previously (Tuscano et al., supra). The cell lines were maintained in RPMI 1640 supplemented with 10% fetal calf serum at 0.5 times. 10⁶ cells/ml. A Scatchard analysis using Raji and Ramos cells was performed as described previously (Scatchard, G., Ann. of NY Acad Sci. 51:660 (1947)). Briefly, HB22-7 was labeled with ¹²⁵ I by the chloramine T method (specific activity of […]). A competitive binding assay was performed utilizing serially diluted, unlabeled HB22-7.
Scatchard analysis was utilized to assess the binding affinity of HB22-7 and the number of CD22 receptors on Ramos and Raji cells. The cells were assayed for maximum, binding percentage (Bmax), disassociation constant (Ka) and number of antibodies bound per cell. The results shown in Table 1 are the average of two experiments.

The source of these data is patent publication US20120301472A1 (DUKE UNIVERSITY, published 2012).

T1 sequence (P20273 other isoform, or with tags, fused parts or gaps limits assumed): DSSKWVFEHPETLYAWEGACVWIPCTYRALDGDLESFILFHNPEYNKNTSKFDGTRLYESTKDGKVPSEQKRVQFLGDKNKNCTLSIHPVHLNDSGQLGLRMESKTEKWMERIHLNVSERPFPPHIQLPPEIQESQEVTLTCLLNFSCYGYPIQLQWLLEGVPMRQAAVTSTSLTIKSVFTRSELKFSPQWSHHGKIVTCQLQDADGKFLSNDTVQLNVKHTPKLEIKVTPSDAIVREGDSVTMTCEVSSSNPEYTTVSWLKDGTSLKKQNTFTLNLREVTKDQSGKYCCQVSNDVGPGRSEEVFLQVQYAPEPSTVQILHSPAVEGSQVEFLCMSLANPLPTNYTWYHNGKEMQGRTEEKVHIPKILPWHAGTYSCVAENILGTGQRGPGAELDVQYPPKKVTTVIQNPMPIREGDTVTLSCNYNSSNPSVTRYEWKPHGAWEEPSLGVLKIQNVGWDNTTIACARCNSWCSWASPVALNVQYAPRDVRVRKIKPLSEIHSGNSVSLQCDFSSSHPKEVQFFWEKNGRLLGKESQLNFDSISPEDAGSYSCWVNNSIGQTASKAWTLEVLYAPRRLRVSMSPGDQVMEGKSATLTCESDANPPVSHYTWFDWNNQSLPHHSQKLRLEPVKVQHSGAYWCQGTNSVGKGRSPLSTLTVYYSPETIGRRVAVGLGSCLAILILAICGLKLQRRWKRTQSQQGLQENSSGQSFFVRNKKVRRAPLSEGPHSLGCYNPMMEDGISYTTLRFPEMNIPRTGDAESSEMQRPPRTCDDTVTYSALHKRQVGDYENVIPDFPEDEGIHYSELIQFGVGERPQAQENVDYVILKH

B1: anti-CD22 monoclonal antibody HB22-33 (antibody, V domains shown)
VH: EVQLQESGPGLVKPSQSLSLTCSVTGYSITSGYYWNWIRQFPGNKLEWMGYIRYDGSNNYNPSLKNRISITRDTSKNQFFLKLNSVTTEDTATYYCARGGITVAMDYWGQGTSVTVSS
VL: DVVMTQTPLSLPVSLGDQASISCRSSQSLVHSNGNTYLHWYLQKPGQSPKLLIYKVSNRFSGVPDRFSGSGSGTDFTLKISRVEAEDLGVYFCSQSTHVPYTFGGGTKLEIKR
For B1, the binding result in experiment [1] is “binds”.

B2: anti-CD22 monoclonal antibody HB22-5 (antibody, V domains shown)
VH: EVQLQESGPELVKPGASMKISCKASGYSFTDYTMNWVKQSHGKNLEWIGLLHPFNGGTSYNQKFKGKATLSVDKSSSTAFMELLSLTSEDSAVYFCARGTGRNYAMDYWGQGTSVTVSS
VL: SIVMTQTPKFLLVSTGDRVTITCKASQTVTNDLAWYQQKPGQSPKLLIYYASNRYTGVPDRFTGSGYGTDFTFTINTVQAEDLAVYFCQQDYSSPLTFGAGTKLELKR
With B2, the binding result in experiment [1] is listed as “binds”.

B3: anti-CD22 monoclonal antibody HB22-7 (antibody, V domains shown)
VH: EVQLQESGPGLVAPSQSLSITCTVSGFSLSDYGVNWVRQIPGKGLEWLGIIWGDGRTDYNSALKSRLNISKDNSKSQVFLKMNSLKADDTARYYCARAPGNRAMEYWGQGTSVTVSS
VL: SIVMTQTPKFLLVSAGDRITLTCKASQSVTNDVAWYQQKPGQSPKLLIYYASNRYTGVPDRFTGSGYGTDFTFTISTVQAEDLAVYFCQQDYRSPWTFGGGTKLEIKR
notes: Labelled with 125I for the Scatchard assay; also called HB11347; anti-CD22 mAb
With B3, in experiment [2], the “fold increase in Ka, Raji cells versus Ramos cells” value worked out at 2 fold; the “fold increase in antibodies bound per cell and Bmax, Raji cells versus Ramos cells” value was around 2.5 fold.

B4: anti-CD22 monoclonal antibody HB22-13 (antibody, V domains shown)
VH: EVQLQESGGGLVQPGGSLRLSCATSGFTFIDYYMNWVRQPPGKALEWLGFIKNKFNGYTTEYNTSVKGRFTISRDNSQSILYLQMNTLRAEDSATYYCARGLGRSYAMDYWGQGTSVTVSS
VL: SIVMTQTPKFLLVSAGDRVSITCKASQSVTNDVTWYQQKPGQSPKLLIYFASNRYTGVPDRFTGSGYGTDFTFTISTVQAEDLAVYFCQQDYSSPLTFGAGTKLELKR
On to B4, for which, in experiment [1], the binding result is “binds”.
